Results on two molecules are retold here after patent US20150104448A1 (TRUE NORTH THERAPEUTICS, published 2015).

Numbering of substitutions follows the chain as printed.

One assay deals with T1, purified rat C1s (rat, UniProt Q6P6T1 16-688, limits assumed).
T1 construct: also called rat complement C1s protein
T1 sequence (looked up): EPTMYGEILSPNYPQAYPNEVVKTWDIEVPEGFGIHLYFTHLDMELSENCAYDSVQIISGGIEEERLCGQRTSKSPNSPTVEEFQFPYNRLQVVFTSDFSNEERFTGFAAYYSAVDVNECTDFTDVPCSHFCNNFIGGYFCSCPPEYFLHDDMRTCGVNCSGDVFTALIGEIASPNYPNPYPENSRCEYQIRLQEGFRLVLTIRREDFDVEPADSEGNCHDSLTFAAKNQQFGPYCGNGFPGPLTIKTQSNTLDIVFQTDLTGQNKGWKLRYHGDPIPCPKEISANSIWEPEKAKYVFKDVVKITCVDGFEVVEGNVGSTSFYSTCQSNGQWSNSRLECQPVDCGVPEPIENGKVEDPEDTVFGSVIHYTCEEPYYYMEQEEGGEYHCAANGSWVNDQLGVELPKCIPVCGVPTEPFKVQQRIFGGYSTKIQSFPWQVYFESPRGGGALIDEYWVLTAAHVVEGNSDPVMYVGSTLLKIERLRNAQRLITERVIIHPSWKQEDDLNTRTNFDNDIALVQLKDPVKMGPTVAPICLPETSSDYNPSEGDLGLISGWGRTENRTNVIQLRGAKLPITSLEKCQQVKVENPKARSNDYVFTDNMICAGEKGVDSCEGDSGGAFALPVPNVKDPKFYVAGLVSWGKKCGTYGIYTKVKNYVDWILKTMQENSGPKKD
The experiment in a line: ELISA, purified rat C1s immobilized on micro-titer plates, increasing dilutions of antibody. The method, then: ELISA assays were performed with purified rat C1s immobilized on micro-titer plates and increasing dilutions of IPN003 or M81.
In general terms: ELISA stands for enzyme-linked immunosorbent assay.

The target of another assay is T2, C1r.
T2 construct: member of group m5; also called complement C1r
T2 chain: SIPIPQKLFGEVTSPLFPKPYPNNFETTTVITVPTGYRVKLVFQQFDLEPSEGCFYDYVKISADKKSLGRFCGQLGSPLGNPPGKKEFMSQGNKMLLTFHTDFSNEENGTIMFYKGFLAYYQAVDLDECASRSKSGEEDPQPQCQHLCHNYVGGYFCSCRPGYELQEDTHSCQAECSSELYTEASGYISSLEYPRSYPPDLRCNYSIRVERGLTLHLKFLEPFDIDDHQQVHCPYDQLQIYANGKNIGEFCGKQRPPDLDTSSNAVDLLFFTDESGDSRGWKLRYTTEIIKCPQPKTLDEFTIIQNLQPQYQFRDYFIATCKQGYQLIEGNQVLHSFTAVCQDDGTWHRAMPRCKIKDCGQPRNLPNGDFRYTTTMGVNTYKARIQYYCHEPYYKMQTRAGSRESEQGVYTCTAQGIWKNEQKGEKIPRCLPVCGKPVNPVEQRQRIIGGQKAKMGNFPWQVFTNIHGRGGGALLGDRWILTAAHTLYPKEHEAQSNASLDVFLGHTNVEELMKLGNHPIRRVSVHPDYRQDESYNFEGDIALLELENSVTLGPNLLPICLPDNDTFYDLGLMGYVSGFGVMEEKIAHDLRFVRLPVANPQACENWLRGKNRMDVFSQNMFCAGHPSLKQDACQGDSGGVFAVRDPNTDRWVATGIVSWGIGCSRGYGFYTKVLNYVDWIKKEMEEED
The experiment in a line: ELISA, target proteins immobilized on micro-titer plates. The method, then:
(§1) To determine whether IPN003 could bind other components of the complement cascade, ELISA assays were performed with target proteins immobilized on micro-titer plates.

A further assay concerns the target T3, C2.
T3 construct: member of group m5; also called complement C2
T3 chain: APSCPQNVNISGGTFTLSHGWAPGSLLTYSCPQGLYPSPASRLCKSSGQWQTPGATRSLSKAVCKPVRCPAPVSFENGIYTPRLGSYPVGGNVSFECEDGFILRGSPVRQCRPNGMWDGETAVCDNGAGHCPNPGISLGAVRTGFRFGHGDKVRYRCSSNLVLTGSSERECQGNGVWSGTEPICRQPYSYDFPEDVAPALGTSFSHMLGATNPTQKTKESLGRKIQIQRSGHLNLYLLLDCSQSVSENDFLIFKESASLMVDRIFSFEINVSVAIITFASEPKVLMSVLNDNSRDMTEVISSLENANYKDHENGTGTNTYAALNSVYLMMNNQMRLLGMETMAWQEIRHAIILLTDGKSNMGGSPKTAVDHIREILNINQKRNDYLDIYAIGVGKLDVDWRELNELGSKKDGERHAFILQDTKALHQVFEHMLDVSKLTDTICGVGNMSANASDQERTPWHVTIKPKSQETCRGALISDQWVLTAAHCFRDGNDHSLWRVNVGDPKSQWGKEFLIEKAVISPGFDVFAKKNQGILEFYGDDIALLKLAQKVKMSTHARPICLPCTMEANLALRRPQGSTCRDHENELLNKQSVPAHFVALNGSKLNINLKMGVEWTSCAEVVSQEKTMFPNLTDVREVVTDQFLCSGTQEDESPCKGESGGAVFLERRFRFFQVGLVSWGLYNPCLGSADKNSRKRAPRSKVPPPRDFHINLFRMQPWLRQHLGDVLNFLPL
The assay is described as above. The method, then: as §1

Assay [1] deals with T4, purified human activated C1s protein, two-chain form (Homo sapiens, UniProt P09871 16-688).
T4 construct: Also used here for C1s acting in human serum assays; also called human C1s; active C1s
T4 sequence: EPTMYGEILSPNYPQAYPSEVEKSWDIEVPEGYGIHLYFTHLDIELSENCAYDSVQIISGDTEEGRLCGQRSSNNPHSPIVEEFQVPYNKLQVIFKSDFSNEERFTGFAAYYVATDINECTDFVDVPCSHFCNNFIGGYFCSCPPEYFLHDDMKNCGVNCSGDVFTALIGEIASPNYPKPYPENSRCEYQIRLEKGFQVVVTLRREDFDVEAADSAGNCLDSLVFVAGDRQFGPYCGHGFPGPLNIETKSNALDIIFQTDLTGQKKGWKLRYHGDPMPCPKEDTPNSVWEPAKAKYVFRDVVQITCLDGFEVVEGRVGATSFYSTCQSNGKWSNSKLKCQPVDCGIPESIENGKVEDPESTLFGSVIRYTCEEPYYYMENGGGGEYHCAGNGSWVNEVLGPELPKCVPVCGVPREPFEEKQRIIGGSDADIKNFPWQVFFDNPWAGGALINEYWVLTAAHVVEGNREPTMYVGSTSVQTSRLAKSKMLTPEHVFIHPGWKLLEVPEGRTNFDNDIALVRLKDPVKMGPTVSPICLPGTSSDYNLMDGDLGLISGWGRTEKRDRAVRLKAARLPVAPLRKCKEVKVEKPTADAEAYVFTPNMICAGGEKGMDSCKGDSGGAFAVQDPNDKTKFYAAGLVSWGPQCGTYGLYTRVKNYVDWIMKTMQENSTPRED
The description is as above. The method, then:
as §1

Assay [2] has as its target T4, purified human activated C1s protein, …. As to the kind of experiment: kinetic binding measurement, method not stated; lower end of the printed KD range, native human C1s.
For assay [3] the target is unchanged. As to the kind of experiment: kinetic binding measurement, method not stated; kinetic measurement, native human C1s.
Assay [4] shares this target. As to the kind of experiment: kinetic binding measurement, method not stated; Table 4, Active-C1s.
For assay [5] the target is unchanged. The experiment in a line: competition ELISA, plate-coated human C1s; competitor biotin-labeled M81 at 0.5E-9 M; competition with biotin-labeled M81 (0.5E-9 M), plate-coated native human C1s. The method, then:
To determine if IPN003 could compete binding of M81 to human C1s, competition assays were performed, in which biotin-labeled M81 (final concentration 0.5E-9 M) was incubated with increasing concentrations of unlabeled antibodies in wells coated with human C1s.

Assay [6] has as its target T5, Inactive-C1s (Homo sapiens, UniProt P09871).
T5 construct: proenzyme (pro-C1s); also called pro-C1s
T5 sequence (single chain, looked up): T4 sequence
The experiment in a line: kinetic binding measurement, method not stated; Table 4, Inactive-C1s.

Assay [7] has as its target T4, purified human activated C1s protein, …. As to the kind of experiment: kinetic binding measurement, method not stated; Table 9, activated C1s.
Assay [8] deals with T5, Inactive-C1s. The experiment in a line: kinetic binding measurement, method not stated; Table 10, pro-C1s.

B1: Anti-C1s monoclonal antibody IPN003 (antibody, V domains shown)
VH: EVMLVESGGALVKPGGSLKLSCAASGFTFSNYAMSWVRQIPEKRLEWVATISSGGSHTYYLDSVKGRFTISRDNARDTLYLQMSSLRSEDTALYYCARLFTGYAMDYWGQGTSVTVSS
VL: QIVLTQSPAIMSASLGERVTMTCTASSSVSSSYLHWYQQKPGSSPKLWIYSTSNLASGVPARFSGSGSGTFYSLTISSMEAEDDATYYCHQYYRLPPITFGAGTKLELK
notes: Mouse monoclonal antibody from an NZBW hybridoma; Biotin-labeled in some assays; also called IPN-M34; M34
What is called Kd is the equilibrium constant for the complex coming apart. High values mean weaker binding, low ones tighter binding. As usually defined, the EC50 (read off the curve) is the concentration that produces a half-maximal response. A lower EC50 (read off the curve) goes with higher potency in that assay. One may read the koff as a measure of how fast the partners let go of each other. Lower therefore signals a long-lived complex. Broadly, the kon is the rate constant with which the complex forms. By IC50 is commonly meant the midpoint of a concentration-inhibition curve. A lower IC50 goes with greater potency in that assay. On to B1, for which the Kd with purified rat C1s is 0.2 nM; in assay [2], 1.58 to 2.04 nM; in [4], 2.04 nM; in the assay with Inactive-C1s [6], 1.58 nM. Also, the binding result with C1r and with C2 was “no binding (tested: about 2e-7 M)” in each case. For the same molecule, the “EC50 (read off the curve)” value in assay [1] was approximately 0.3 nM. The values for the koff (in [3]; in [4]; with Inactive-C1s [6]) were 0.000553 s⁻¹, 0.000658 s⁻¹ and 0.000553 s⁻¹, respectively. The kon in [3] was determined as 356000 M⁻¹ s⁻¹; in assay [4], 323000 M⁻¹ s⁻¹; in the assay with Inactive-C1s [6], 356000 M⁻¹ s⁻¹. Besides, in assay [5], the IC50 is 0.33 nM.

B2: VH3/Vk2 (antibody, V domains shown)
VH: B1 VH with A10G, K19R, I40A, E42G, R44G, A75S, R76K, S88A
VL: QIVLTQSPATLSLSPGERATMSCTASSSVSSSYLHWYQQKPGKAPKLWIYSTSNLASGVPSRFSGSGSGTDYTLTISSLQPEDFATYYCHQYYRLPPITFGQGTKLEIK
notes: member of group m7; also called VH3/Vκ2; VH variant 3 + Vk variant 2
In [7], B2 displayed a Kd of 0.274 nM, a koff of 0.000311 s⁻¹ and a kon of 1.13e+06 M⁻¹ s⁻¹. In the assay with Inactive-C1s [8], this molecule gave a Kd of 0.291 nM, a koff of 0.000315 s⁻¹ and a kon of 1.08e+06 M⁻¹ s⁻¹.
